Key:
[1] = target: Methanothermobacter thermautotrophicus 70S ribosome (M. thermautotrophicus (endogenous in M. thermautotrophicus cells)) (UniProt O26110); assay: MST; fluorescently labelled (DY-495) 70S, 50S or 30S kept constant, unlabelled aaRS or control protein titrated (mSerRS 2.5 nM-40.8 µM, ArgRS 5.6 nM-91.9 µM on 70S); 20 mM Tris-HCl pH 7.5, 150 mM NaCl, 6 mM MgCl2, 1 mM DTT, 0.05% Tween-20, 0.4 mg/ml BSA; hyperbolic fit
[2] = target: Methanothermobacter thermautotrophicus large ribosomal subunit (M. thermautotrophicus (endogenous in M. thermautotrophicus cells)) (UniProt O26110); assay: as above
Methanothermobacter thermautotrophicus large ribosomal subunit (M. thermautotrophicus (endogenous in M. thermautotrophicus cells)), sequence (O26110 whole entry, looked up, tested part not stated): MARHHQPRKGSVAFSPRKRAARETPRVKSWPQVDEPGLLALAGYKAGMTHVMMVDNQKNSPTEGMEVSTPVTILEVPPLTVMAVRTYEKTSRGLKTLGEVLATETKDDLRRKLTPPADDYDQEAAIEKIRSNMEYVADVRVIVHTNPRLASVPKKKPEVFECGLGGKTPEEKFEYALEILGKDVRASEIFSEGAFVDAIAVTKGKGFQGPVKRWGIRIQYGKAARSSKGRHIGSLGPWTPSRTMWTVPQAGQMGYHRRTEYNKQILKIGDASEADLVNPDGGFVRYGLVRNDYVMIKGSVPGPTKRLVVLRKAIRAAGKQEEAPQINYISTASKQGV

Methanothermobacter thermautotrophicus 70S ribosome (M. thermautotrophicus (endogenous in M. thermautotrophicus cells)), sequence (O26110 whole entry, looked up): as the sequence (O26110 whole entry, looked up, tested part not stated) above

Row | Kd [1] [µM] | Kd [2] [µM] | Binder
1 | 4.7 |  | Methanothermobacter thermautotrophicus arginyl-tRNA synthetase (enzyme) MFRYIEKEARDSITAALEKLGIKVPPEIKLEEPPNPQLGDLASTVSFELAGKLRRAPIEITADIMSVIETPEIFETIESKGPYINFFVDYGRFSSRLLESIQDDYGSHPPRDERVILEHTSANPNGPLHIGHIRNAIIGDSLARILRMAGYDVETQYYVNDMGRQIAMIVWGLLNLDGDLEDYPGDKMDHRVGKLYFEVNQRLKENPGIRDEVDELIRKYEAGENEELFRKVVEYCLSGMEETMKRLHVHHDRFVWEGQFVRDGTVDRVIESLRKTGYTGENDVLYLDLEEFGLEKELVLTRSDGTSLYSTRDIAYHLQKSEEGDVIIDVLGSDHKLAAEQVGIAVELLGGKRPEVIFYEFITLPEGSMSTRRGVFISVDELMDEAHSRALHEVKKRRDLPDDVADDIAESIGNGAIRYYIARLSPEKHIVFRWDDALSFERGCASIQYAHARACKLLEKASFTGEEDIEDGWKPEGDERELVRLLARFPVVVEESALARRVHPVAQYAQDLANTFNSFYRSTPVIGSDFEGARLRLVDSVRKTLRNALNLLGIHAPETM
2 | 1.25 | 1.29 | Methanothermobacter thermautotrophicus methanogenic-type seryl-tRNA synthetase (enzyme) MKFKLKGIIKLSKEVPGIEDDLEKFFTEAESDILRRGVPEGQEHEAAHIKSWRLEGDTLHIEMESGRRVRAHDGLLRLKKPLGQLLGPKYRVGVRGISVTDYTMEMKAPGVSGIPSLAELPFVEDAAITDGTIMVRFQPLEESDLRKHVFDRVVKHARTLVESSDDLTVQVTRATPGEIIARSRSRDFFFEGDPTEEAMRLGWVKKFPGRGQWFYGPKITALHRALEEFFIERIVKPLGFVECLFPKLIPLDIMNKMRYLEGLPEGMYYCSAPSRDPETFEEFKNELIINREVPMDLLKRGIKDPGYVIAPAQCEPFYQFLSHEVVSAEDLPVKFFDRSGWTYRWEAGGSKGLDRVHEFQRVELVWLAEPGETEEIRDRTVELSHDAADELELEWYTEVGDDPFYLEGRKVEERGIEFPDVPKYEMRLSLPGREKGVAVVSANVHGTHFIEGFSIREARNLNIWTGCTGIGLSRWIYGFLAQKGFETGNWPDFIGERVEGVENPRIITWPRQD

Reference: article PMC4005694
